The values below come from patent publication US20070092518A1 (published 2007).

The labels stand for the following.
B1: SEQ ID NO 121 (Fab, V domains shown)
VH: EVQLVESGGGLVQPGGSLRLSCAASQFTFSNHYMNWVRQAPGKGLEWIGEIRSKSINSATHYAESVKGRFIISRDDNGNDLYLEMNSLKTEDTAEYYCAQNYYGSTYDYWGQGTLVTVS
VL: EIVLTQSPDFQSVTPKEKVTITCRASQFVGSSIHWYQQKPDQSPKLLIKYASESMSGVPSRFSGSGSGTDFTFTISSLEAEDAATYYCQQSHSWPFTFGPGTKVDIK
notes: Fab, E. coli lysate
B2: SEQ ID NO 21 (Fab, V domains shown)
VH: B1 VH with V5T, Y33W, N57Y, S58G, Q100R
VL: B1 VL
notes: Fab, E. coli lysate
B3: SEQ ID NO 18 (Fab, V domains shown)
VH: B1 VH with A23R, I56S, S58G, H61S, D76G, D80S, Y82T, Q100R
VL: B1 VL
notes: Fab, E. coli lysate
B4: SEQ ID NO 17 (Fab, V domains shown)
VH: EVQLTESGGGLVQPGGSLRLSCRASGFTFSNHWMNWVRQAPGKGLEWIGEIRSKSSYSATHYAESVKGRFIISRDDNKTSLYLEMNSLKTEDTAEYYCARNYYGSTPDYWGQGTLVTVS
VL: B1 VL
notes: Fab, E. coli lysate
B5: SEQ ID NO 14 (Fab, V domains shown)
VH: B1 VH with V5T, Y33W, N57Y, S58G, D76G, Q100R, Y107P
VL: B1 VL
notes: Fab, E. coli lysate
B6: SEQ ID NO 10 (Fab, V domains shown)
VH: B1 VH with V5T, A23R, Q26G, T28I, H61S, G78K, Y82T, Q100R
VL: B1 VL
notes: Fab, E. coli lysate
B7: SEQ ID NO 8 (Fab, V domains shown)
VH: B1 VH with V5T, A23R, Q26G, F27S, S58G, D76G
VL: B1 VL
notes: Fab, E. coli lysate
B8: SEQ ID NO 13 (Fab, V domains shown)
VH: B4 VH with R23A, F27S, T28I, W33Y, Y57N, S80D, P107Y
VL: B1 VL
notes: Fab, E. coli lysate
B9: SEQ ID NO 4 (Fab, V domains shown)
VH: B4 VH with T28I, H61S, R100Q, P107Y
VL: B1 VL
notes: Fab, E. coli lysate
B10: SEQ ID NO 20 (Fab, V domains shown)
VH: B1 VH with A23R, Q26G, I56S, H61S, Y82T, Y107P
VL: B1 VL
notes: Fab, E. coli lysate
B11: SEQ ID NO 22 (Fab, V domains shown)
VH: B1 VH with A23R, Q26G, F27S, Y33W, I56S, D80S, Y82T
VL: B1 VL
notes: Fab, E. coli lysate
B12: SEQ ID NO 11 (Fab, V domains shown)
VH: B4 VH with R23A, T28I, S56I, Y57N, S58G, H61S, R100Q, P107Y
VL: B1 VL
notes: Fab, E. coli lysate
B13: SEQ ID NO 5 (Fab, V domains shown)
VH: B1 VH with V5T, Y33W, G78K, D80S, Y82T, Q100R
VL: B1 VL
notes: Fab, E. coli lysate
B14: SEQ ID NO 7 (Fab, V domains shown)
VH: B1 VH with V5T, Y33W, I56S, G78K, N79T
VL: B1 VL
notes: Fab, E. coli lysate

Substitutions are numbered along the chain they refer to.

T1 sequence (P01375 77-233 limits assumed): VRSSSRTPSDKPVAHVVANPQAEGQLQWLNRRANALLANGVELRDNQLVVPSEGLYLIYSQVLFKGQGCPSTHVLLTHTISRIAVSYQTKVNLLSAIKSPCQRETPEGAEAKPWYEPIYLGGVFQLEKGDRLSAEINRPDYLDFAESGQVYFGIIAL

This assay has as its target T1, human tumor necrosis factor-α (rHuTNF-alpha, Biosource) (human, UniProt P01375 77-233).
T1 construct: Bought recombinant protein coated on ELISA plates; The TNFα of the Biacore assay is not described further; also called TNFα; human TNFα
The experiment in a line: solid-phase ELISA, Fab lysate on coated rHuTNF-alpha. As for the experimental part: The Fab libraries were cloned into pTrcHis2A (Cat. No. V365-20, Invitrogen, Carlsbad, Calif.). Proteins were expressed in E. coli and solid-phase ELISA was used to assess Fab binding to human TNFα. Briefly, 96-well plates were coated overnight at 4° C. with 1 μg/ml of rHuTNF-alpha (Biosource, Camarillo, Calif.) in Carbonate-bicarbonate buffer, pH9.4. After washing in PBS with 0.05% (w/v) Tween-20, the wells were blocked with 1% (w/v) BSA in PBS for 1 hour at room temperature. After washing, plates were incubated with transformed E. coli cell lysate diluted in the assay buffer (1% BSA and 0.05% Tween-20 in 10 mM PBS) for 2 hours at room temperature. Various concentrations of infliximab (0.5, 1 and 2 ng/ml) were used as positive anti-Human Kappa Light Chain Biotin/anti-penta-His Biotin control. Plates were washed and incubated with ImmunoPure Goat Anti-Human Kappa Chain, Biotin Conjugated (Cat. No. 31780, Pierce Biotechnology, Rockford, Ill.) and Penta-His Biotin Conjugate (Cat. No. 34440, QIAGEN, Valencia, Calif.) diluted 1:2000 in the assay buffer for 1 hour at room temperature. Following another washing step, plates were probed for 1 hour at room temperature with 100 μL/well of Streptavidin POD (Cat. No. 1089153, Roche Applied Science, Indianapolis, Ind.) diluted 1:4000 in the assay buffer. Plates were further washed and then incubated with 3,3′,5,5′-tetramentylbenzidine (TMB, Cat. No. 34028, Pierce Biotechnology) for 30 minutes. Substrate development was stopped by addition of 100 μL/well TMB Stop Solution (Cat. No. 50-85-05, KPL, Gaithersburg, Md.) and the absorbance was measured at 450 nm via an automated plate spectrophotometer.
Consider B1, for which the binding result is “binds”.

Consider B2, for which the binding result is reported as “binds”.

With B3, the binding result is “binds”.

As to B4, the binding result is on record as “binds”.

For the molecule B5, the binding result is given as “binds”.

Take B6: the binding result is on record as “binds”.

With B7, the binding result is “binds”.

For B8, the binding result is listed as “binds”.

Turning to B9, the binding result is on record as “binds”.

Take B10: the binding result is given as “binds”.

Regarding B11, the binding result is reported as “binds”.

Consider B12, for which the binding result is on record as “binds”.

As for B13, the binding result was “binds”.

Turning to B14, the binding result is given as “binds”.
